Laboratory results: paper PMC6509562, “Properties of the HtrA Protease From Bacterium Helicobacter pylori Whose Activity Is Indispensable for Growth Under Stress Conditions” (Frontiers in Microbiology, 2019)

B1: HtrAEcS210A from Escherichia coli (enzyme, UniProt P0C0V0 27-474, looked up)
chain: AETSSATTAQQMPSLAPMLEKVMPSVVSINVEGSTTVNTPRMPRNFQQFFGDDSPFCQEGSPFQSSPFCQGGQGGNGGGQQQKFMALGSGVIIDADKGYVVTNNHVVDNATVIKVQLSDGRKFDAKMVGKDPRSDIALIQIQNPKNLTAIKMADSDALRVGDYTVAIGNPFGLGETVTSGIVSALGRSGLNAENYENFIQTDAAINRGNAGGALVNLNGELIGINTAILAPDGGNIGIGFAIPSNMVKNLTSQMVEYGQVKRGELGIMGTELNSELAKAMKVDAQRGAFVSQVLPNSSAAKAGIKAGDVITSLNGKPISSFAALRAQVGTMPVGSKLTLGLLRDGKQVNVNLELQQSSQNQVDSSSIFNGIEGAEMSNKGKDQGVVVNNVKTGTPAAQIGLKKGDVIIGANQQAVKNIAELRKVLDSKPSVLALNIQRGDSTIYLLMQ
notes: also called DegP S210A; S/A

How the values were obtained:
[1] = target: HtrAHpS221A from H. pylori strain N6 (Helicobacter pylori strain N6) (UniProt B5Z6H5); experiment: AUC
[2] = target: the molecule itself; experiment: SEC; Superose 12HR 10/30, 300 mM NaCl, 50 mM Na-phosphate pH 6.5 or 8.0, room temperature; refolded HtrA variant 41 uM without substrate

Molecule	content of peak 1 (6.1 S) at 0.65 mg/ml [1] [%]	content of peak 1 (6.1 S) at 1.6 mg/ml [1] [%]	content of peak 1 (6.1 S) at 3.3 mg/ml [1] [%]	content of peak 2 (8.9 S) at 3.3 mg/ml [1] [%]	content of peak 3 (10.3 S) at 1.6 mg/ml [1] [%]	content of peak 3 (10.6 S) at 3.3 mg/ml [1] [%]	content of peak 3 (11.0 S) at 0.65 mg/ml [1] [%]	content of peak 4 (12.4 S) at 3.3 mg/ml [1] [%]	content of peak 4 (13.0 S) at 1.6 mg/ml [1] [%]	content of peak 5 (15.7 S) at 3.3 mg/ml [1] [%]	content of peak 5 (15.8 S) at 0.65 mg/ml [1] [%]	content of peak 5 (15.8 S) at 1.6 mg/ml [1] [%]	content of peak 6 (19.5 S) at 3.3 mg/ml [1] [%]	content of peak 6 (19.9 S) at 0.65 mg/ml [1] [%]	content of peak 6 (19.9 S) at 1.6 mg/ml [1] [%]	content of peak 7 (22.8 S) at 3.3 mg/ml [1] [%]	content of peak 8 (24.5 S) at 0.65 mg/ml [1] [%]	content of peak 8 (25.6 S) at 1.6 mg/ml [1] [%]	content of peak 8 (25.8 S) at 3.3 mg/ml [1] [%]	stoichiometry N [2]
HtrAHpS221A from H. pylori strain N6 (from UniProt B5Z6H5 1-476) (enzyme)	38	38	38	3.4	8.8	5.1	12	3.8	3.2	9	8.1	7.9	28	29	30	3.1	4.8	5.9	3.6	
B1																				6
